From US20240018252A1 (Pfizer, published 2024)
Substitutions are numbered along the chain they refer to.

Assays:
human CD3 (huCD3ed) [1] = molecular target: T1, human CD3 (huCD3ed) (human, UniProt P07766 23-126; P04234 22-105); test: Biacore SPR, antibody as ligand, hCD3ed 80 nM-0.64 nM, kinetic fit
T1 construct: Soluble analyte in SPR; The delta chain is inferred from the label 'ed'; also called hCD3ed; hCD3

human BCMA = molecular target: T2, human BCMA (human, UniProt Q02223 1-54); test: SPR, IgG immobilized, human BCMA analyte, 37 C
T2 construct: soluble analyte in SPR; also called hBCMA; huBCMA
T2 sequence: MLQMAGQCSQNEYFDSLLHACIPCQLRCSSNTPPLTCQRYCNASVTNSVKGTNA
Description: (§1) All experiments were performed on a Bio-Rad Proteon XPR36 surface Plasmon resonance biosensor (Bio-Rad, Hercules, CA). […] The analysis temperature for the immobilization was 25° C. and the running buffer was HBS-T+(10 mM HEPES, 150 mM NaCl, 0.05% Tween-20, pH 7.4). Channels were activated in the analyte (horizontal) direction by injecting a mixture of 1 mM ECD and 0.25 mM NHS for 3 minutes at a flow rate of 30 μL/min. IgGs were immobilized on the activated spots by injecting them in the ligand (vertical) direction at […] in 10 mM Acetate pH 4.5 buffer for 1.5 minutes at 30 pg/mL. The activated surfaces were blocked by injecting 1M ethanolamine, pH 8.5 in the analyte direction for 3 minutes at 30 pL/min.
(§2) The analysis temperature for the hBCMA binding analysis was 37° C. or 25° C. in a running buffer of HBS-T+, supplemented with 1 mg/mL BSA. A kinetic titration method was employed for the interaction analysis as described in Abdiche, et al. The hBCMA (human BCMA) analyte was injected in the analyte direction using a series of injections from low to high concentration. The concentrations used were 0.08 nM, 0.4 nM, 2 nM, 10 nM and 50 nM (a 5-membered series, with a 5-fold dilution factor and top concentration of 50 nM). The association time for a given analyte dilution was two minutes. Immediately after the 50 nM hBCMA injection, dissociation was monitored for 2 hours.
(§3) The sensorgrams were double-referenced and fit to a 1:1 Langmuir with mass transport kinetic titration model in BIAevaluation Software version 4.1.1 (GE Lifesciences, Piscataway, NJ).

[2] = molecular target: T3, human BCMA on BCMA-expressing tumor cells (human, UniProt Q02223 1-184); test: flow cytometry, 0.5 ug antibody on 250,000 MM1S (BCMA++) cells, Alexa Fluor 647 anti-mouse IgG
T3 construct: endogenous BCMA of myeloma cell lines; also called BCMA on KMS12PE, MM1S (MM1.S), L363, KMS12BM cells
T3 sequence: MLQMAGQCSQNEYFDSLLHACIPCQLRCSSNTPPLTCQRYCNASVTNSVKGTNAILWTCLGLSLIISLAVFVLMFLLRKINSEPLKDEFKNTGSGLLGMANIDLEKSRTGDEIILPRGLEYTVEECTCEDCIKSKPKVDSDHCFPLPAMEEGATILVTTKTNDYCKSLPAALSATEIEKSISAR
Description: (§4) Binding of human anti-hBCMA expressed in mouse IgG2a were assessed on BCMA-expressing cells (KMS12BM, L363, MM1S and KMS12PE) by flow cytometry. 250,000 cells were incubated with 0.5 ug antibody in 100 uL binding buffer (PBS (Phosphate Buffered Saline)+0.2% BSA (Bovine Serum Albumin)), followed by incubation with Alex Fluor 647 conjugated anti-mouse IgG (Biolegend).

[3] = molecular target: T3, human BCMA on BCMA-expressing tumor …; test: flow cytometry, 0.5 ug antibody on 250,000 L363 (BCMA+) cells, Alexa Fluor 647 anti-mouse IgG
Description: as §4

[4] = molecular target: T3, human BCMA on BCMA-expressing tumor …; test: flow cytometry, 0.5 ug antibody on 250,000 KMS12BM (BCMA+) cells, Alexa Fluor 647 anti-mouse IgG
Description: as §4

[5] = molecular target: T3, human BCMA on BCMA-expressing tumor …; test: flow cytometry, 0.5 ug antibody on 250,000 KMS12PE (BCMA+++) cells, Alexa Fluor 647 anti-mouse IgG
Description: as §4

human CD3 (huCD3ed) [6] = molecular target: T1, human CD3 (huCD3ed); test: SPR (ProteOn XPR36), IgG on chip, huCD3ed analyte, 37 C; column head says nM but kd/ka gives this number in M
Description: as §1, with “[…].” for “pg/mL.”, “μL/min.” for “pL/min.”
as §2, with “hCD3” for “hBCMA”, “CD3)” for “BCMA)”
as §3

human CD3 (huCD3ed) [7] = molecular target: T1, human CD3 (huCD3ed); test: SPR (ProteOn XPR36), IgG amine-coupled on chip, huCD3ed as analyte, 37 C
Description: as §1, with “[…].” for “pg/mL.”, “μL/min.” for “pL/min.”
as §2, with “hCD3” for “hBCMA”, “CD3)” for “BCMA)”
as §3

cynomolgus CD3 (cyCD3ed) = molecular target: T4, cynomolgus CD3 (cyCD3ed) (cynomolgus, UniProt Q95LI5 22-117; Q95LI8 22-105); test: SPR (ProteOn XPR36), IgG amine-coupled on chip, cyCD3ed as analyte, 25 C
T4 construct: Named only by the column head 'cyCD3ed'
T4 sequence (Q95LI5 22-117, chain 1 of 2): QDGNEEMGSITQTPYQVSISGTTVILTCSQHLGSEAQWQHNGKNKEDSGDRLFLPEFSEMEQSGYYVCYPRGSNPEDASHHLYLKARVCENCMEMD
T4 sequence (Q95LI8 22-105, chain 2 of 2): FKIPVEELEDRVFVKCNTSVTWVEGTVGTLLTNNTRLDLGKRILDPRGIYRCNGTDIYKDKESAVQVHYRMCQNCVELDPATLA

human CD3 (huCD3ed) [8] = molecular target: T1, human CD3 (huCD3ed); test: SPR (ProteOn XPR36), IgG amine-coupled on chip, huCD3ed as analyte, 25 C
Description: as §1, with “[…].” for “pg/mL.”, “μL/min.” for “pL/min.”
as §2, with “hCD3” for “hBCMA”, “CD3)” for “BCMA)”
as §3

T1 sequence (P07766 23-126, chain 1 of 2): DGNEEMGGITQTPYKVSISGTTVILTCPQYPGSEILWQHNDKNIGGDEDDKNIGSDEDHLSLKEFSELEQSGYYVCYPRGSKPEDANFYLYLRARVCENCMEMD
T1 sequence (P04234 22-105, chain 2 of 2): as the sequence (Q95LI8 22-105, chain 2 of 2) above, with V5I, K15N, V20I, T32S, N33D, N34I, A64T, N74S, L83V counted along it

B1: UCHT1 (antibody, V domains shown)
VH: EVQLQQSGPELVKPGPSMKISCKASGYSFTGYTMNWVKQSHGKNLEWMGLINPYKGVSTYNQKFKDKATLTVDKSSSTAYMELLSLTSEDSAVYYCARSGYYGDSDWYFDVWGQGTTLTVFS
VL: DIQMTQTTSSLSASLGDRVTISCRASQDIRNYLNWYQQKPDGTVKLLIYYTSRLHSGVPSKFSGSGSGTDYSLTISNLEQEDIATYFCQQGNTLPWTFAGGTKLEIKR
- Kd (human CD3 (huCD3ed) [1]): < 4.74 nM
- t1/2 (human CD3 (huCD3ed) [1]): > 810 s

B2: COMBO_Rd4_0.6nM_C19 (antibody, V domains shown)
VH: EVQLLESGGGLVQPGGSLRLSCAASGFTFSSYPMSWVRQAPGKGLEWVSAIGGSGGSLPYADSVKGRFTISRDNSKNTLYLQMNSLRAEDTAVYYCARYWPMDSWGQGTLVTVSS
VL: EIVLTQSPGTLSLSPGERATLSCRASQSVSAVYLAWYQQKPGQAPRLLMYDASIRATGIPDRFSGSGSGTDFTLTISRLEPEDFAVYYCQQYRAWPLTFGQGTKVEIK
notes: IgG in SPR
- Kd (human BCMA): 0.02 nM
- koff (human BCMA): 0.000155 s⁻¹
- kon (human BCMA): 7.86e+06 M⁻¹ s⁻¹

B3: A02_Rd4_6 nM_C16 expressed in mouse IgG2a (antibody, V domains shown)
VH: B2 VH with P33A, S35N, G52S, G53D, S54F, L58T, P59Y, S104I
VL: B2 VL with A31D, V32L, R93Q, A94T
- MFI [2]: 1950
- MFI [3]: 789
- MFI [4]: 421
- MFI [5]: 3090

B4: Combo_Rd4_0.6 nM_C29 expressed in mouse IgG2a (antibody, V domains shown)
VH: B2 VH with S104I
VL: B2 VL with A31S, V32S, R93Q, A94S
- MFI [2]: 2570
- MFI [3]: 1670
- MFI [4]: 583
- MFI [5]: 6110

B5: A02_Rd4_6 nM_C01 expressed in mouse IgG2a (antibody, V domains shown)
VH: B2 VH with P33A, S35N, G52T, G53A, L58T, P59Y, D103S, S104L
VL: B2 VL with V32Y, R93E, A94R
- MFI [2]: 2540
- MFI [3]: 1180
- MFI [4]: 580
- MFI [5]: 5860

B6: h2B4-VH-wt VL_TK (antibody, V domains shown)
VH: EVQLVESGGGLVQPGGSLRLSCAASGFTFSDYYMTWVRQAPGKGLEWVAFIRNRARGYTSDHNASVKGRFTISRDNAKNSLYLQMNSLRAEDTAVYYCARDRPSYYVLDYWGQGTTVTVSS
VL: DIVMTQSPDSLAVSLGERATINCKSSQSLFNVRSRKNYLAWYQQKPGQPPKLLISWASTRESGVPDRFSGSGSGTDFTLTISSLQAEDVAVYYCKQSYDLFTFGSGTKLEIK
notes: Anti-CD3; also called h2B4-TK
- Kd (human CD3 (huCD3ed) [6]): 38 nM
- T½ (human CD3 (huCD3ed) [7]): 49.8 s
- koff (human CD3 (huCD3ed) [7]): 0.014 s⁻¹
- kon (human CD3 (huCD3ed) [7]): 380000 M⁻¹ s⁻¹

B7: h2B4-VH-yads VL_TK (antibody, V domains shown)
VH: B6 VH with H62Y, N63A, A64D
VL: B6 VL
notes: Anti-CD3
- Kd (human CD3 (huCD3ed) [6]): 86 nM
- T½ (human CD3 (huCD3ed) [7]): 47.4 s
- koff (human CD3 (huCD3ed) [7]): 0.021 s⁻¹
- kon (human CD3 (huCD3ed) [7]): 240000 M⁻¹ s⁻¹

B8: h2B4 (antibody, V domains shown)
VH: B6 VH
VL: B6 VL with K24T
notes: Anti-CD3; tested as human IgG immobilised on the chip; also called h2B4-1d
- Kd (cynomolgus CD3 (cyCD3ed)): 3.8 nM
- T½ (cynomolgus CD3 (cyCD3ed)): 462 s
- koff (cynomolgus CD3 (cyCD3ed)): 0.0015 s⁻¹
- kon (cynomolgus CD3 (cyCD3ed)): 390000 M⁻¹ s⁻¹
- Kd (human CD3 (huCD3ed) [6]): 31.4 nM
- Kd (human CD3 (huCD3ed) [8]): 5.3 nM
- T½ (human CD3 (huCD3ed) [8]): 348 s
- koff (human CD3 (huCD3ed) [8]): 0.002 s⁻¹
- kon (human CD3 (huCD3ed) [8]): 370000 M⁻¹ s⁻¹
- T½ (human CD3 (huCD3ed) [7]): 50.4 s
- koff (human CD3 (huCD3ed) [7]): 0.0137 s⁻¹
- kon (human CD3 (huCD3ed) [7]): 437000 M⁻¹ s⁻¹

B9: h2B4-VH-hnps VL_TK (antibody, V domains shown)
VH: B6 VH with A64P
VL: B6 VL
notes: Anti-CD3; also called h2B4-hnpsTK
- Kd (human CD3 (huCD3ed) [6]): 41 nM
- T½ (human CD3 (huCD3ed) [7]): 43.2 s
- koff (human CD3 (huCD3ed) [7]): 0.016 s⁻¹
- kon (human CD3 (huCD3ed) [7]): 390000 M⁻¹ s⁻¹

B10: h2B4-VH-yaes VL_TK (antibody, V domains shown)
VH: B6 VH with H62Y, N63A, A64E
VL: B6 VL
notes: Anti-CD3; also called h2B4-yaesTK
- Kd (human CD3 (huCD3ed) [6]): 100 nM
- T½ (human CD3 (huCD3ed) [7]): 30 s
- koff (human CD3 (huCD3ed) [7]): 0.023 s⁻¹
- kon (human CD3 (huCD3ed) [7]): 230000 M⁻¹ s⁻¹

B11: h2B4-VH-yaps VL_TK (antibody, V domains shown)
VH: B6 VH with H62Y, N63A, A64P
VL: B6 VL
notes: Anti-CD3
- Kd (human CD3 (huCD3ed) [6]): 92 nM
- T½ (human CD3 (huCD3ed) [7]): 30 s
- koff (human CD3 (huCD3ed) [7]): 0.023 s⁻¹
- kon (human CD3 (huCD3ed) [7]): 250000 M⁻¹ s⁻¹

B12: 2B4 (antibody, mouse IgG1, V domains shown)
VH: EVKLVESGGGLVQPGGSLRLSCATFGFTFTDYYMTWVRQPPGKALEWVAFIRNRARGYTSDHNASVKGRFTISRDNSQNILYLQMNTLRAEDSATYYCARDRPSYYVLDYWGQGTTVTVSS
VL: DIVMSQSPPSLAVSVGDKVTMSCTSSQSLFNSRSRKNYLAWYQQKSGQSPKLLISWASTRESGVPDRFTGSGSGTDFTLTISSVQAEDLAVYYCKQSYDLFTFGSGTKLEIK
notes: Cloned from immunized mouse, expressed as mouse IgG1; also called anti-CD3 2B4
- Kd (human CD3 (huCD3ed) [1]): 7.33 nM
- t1/2 (human CD3 (huCD3ed) [1]): 253 s

B13: 1C10 (antibody, mouse IgG1, V domains shown)
VH: QVQLQQPGSELVRPGASVILSCKASGYTFTSYWMHWVRQRPGQGLEWIGNIYSGGDTINYDEKFKNKAILTVDTSSSTAYMHLSSLTSEDSAVYYCTRDATSRYFFDYWGQGTTVTVSS
VL: DIVMSQSPSSLAVSAGEKVTMSCKSSQSLLNSRTRKNYLAWYQQKPGQSPKLLIYWASTRESGVPDRFTGSGSGTDFTLTIDSVQPEDLAVYYCTQSFILRTFGGGTKLEIK
notes: Cloned from immunized mouse, expressed as mouse IgG1; also called anti-CD3 1C10
- Kd (human CD3 (huCD3ed) [1]): 8 nM
- t1/2 (human CD3 (huCD3ed) [1]): 293 s
